Assay: yeast display, Sf9 membrane polyspecificity reagent, FACS + sequencing; frameworks hold sequencing errors
Summary of the method: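 Nanobodies from a synthetic yeast display library (Saccharomyces cerevisiae BJ5465), induced 36–48 hours with galactose, were stained 1 hour at 4 °C with 10% biotinylated, detergent-solubilized Sf9 membrane reagent, enriched on streptavidin microbeads, then FACS-sorted. Anti-HA (expression) and streptavidin (reagent binding) fluorescence set low and high (top ~1%) gates. Polyreactivity labels come from the gate of origin. Genes were colony-PCR amplified, MiSeq 2 × 250 sequenced and filtered by CDR length.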

Sequence	polyreactivity (PSR sort gate)
QVQLVESGGGLVQAGGSLRLSCAASGSTFSYYAMGWYRQAPGKERELVAAITSSGGSTYYADSVKGRFTISRDNAKNTVYLQMNSLKPEDTAVYYCNTAYHVPYDYWGQGTQVTVSS	low polyreactivity
QVQLVESGGGLVQAGGSLRLSCAASGSTFSYYAMGWYRQAPGKESELVAAISRTAVSTYYADSVKGRFTISRDNAKNTVYLQMYSLKPEDTAVYYCAASHYHGYSLGYDYWGQGTQVTVSS	high polyreactivity
QVQLVESGGGLVQAGGSLRLSCAASGSTFSYYDMGWYRQAPGKERELVAAISWNGGTTYYADSVKGRFTISRDNAKNTVYLQMNSLKPEDTAVYYCAATWDFYWAPDDSWGQGTQVTVSS	low polyreactivity
QVQLVESGGGLVQAGGSLRLSCAASGSTFSYYRMGWYRQATGTERELVASIDYSGESTYYADSVKGRFTISLDNAKNTVYLQMNSLNPEDTAVYYCAADDYPWNRYEYWGQGTQVTVSS	low polyreactivity
QVQLVESGGGLVQAGGSLRLSCAASGSTFTANAMGWYRQAPGKERELVAAITNSDGSTYYADSVKGRFTISRDNAKNTVYLQMNSLKPEETAVYYCAKDYYACYWEMDYWGLGTQVTVSS	low polyreactivity
QVQLVESGGGLVQAGGSLRLSCAASGSTFTAYAMGWYRQAPGKERELVAAINWSGGTTYYADSVKGRFTISRDNAKNTVYLQMNSLKPEDTAVYSCAVDGNFFGEVRPYDYWGQGTQVTVSS	low polyreactivity
QVQLVESGGGLVQAGGSLRLSCAASGSTFTAYAMGWYRQAPGKERELVADISDSGGSTYYADSVKGRFTISRDNAKNTVYLQMNSLKPEDTAVYYCAAAWVFKKGFGTEMDYWGQGTQVTVSS	low polyreactivity
QVQLVESGGGLVQAGGSLRLSCAASGSTFTAYVMGWYRQAPGKERELVAAISRSGGRTYYADSVKGRFTISRDNAKNTVYLQMNSLKPEDTAVYYCAARSGPLAYDYWGQGTQVTVSS	high polyreactivity
QVQLVESGGGLVQAGGSLRLSCAASGSTFTCYAMGWNRQAPRKERELVADITWRDGSTYYADSVKGRFTISRDNAKNTVYLQMNSLKPEDTAVYYCNGRRDYDMDWGQVTQVTVSS	high polyreactivity
QVQLVESGGGLVQAGGSLRLSCAASGSTFTDYDMGWYRQAPGKERELVAAITSGGSTNYADSVKGRFTISRDNAKNTVYLQMNSLKPEDTAVYYCKVRPYGFDSEFDYWGQGTQVTVSS	low polyreactivity
QVQLVESGGGLVQAGGSLRLSCAASGSTFTEYAMGWYRQAPGKERELVAGISSDGSTKYADSVKGRFTISRDNAKNTVYLQMNSLKPEDTAVYYCNKDQSYAKYDYWGQGTQVTVSS	low polyreactivity
QVQLVESGGGLVQAGGSLRLSCAASGSTFTFYTMGWYRQAPGKERELVAAITISAGSTYYADSVKGRFTFSRDNAKNTVYLQMNSLKPEDSAVYYCAADTYAHWGYYGSYYRDDYWGQGTQVTVSS	low polyreactivity
QVQLVESGGGLVQAGGSLRLSCAASGSTFTGYALGWYRQAPGKEREFVATITKRGGRTYYADSVKGRFTISRDNAKNTVYLQMHSLKPEDTAVYYCARDQGKLVVPYDYWGQGTQVTVSS	high polyreactivity
QVQLVESGGGLVQAGGSLRLSCAASGSTFTGYAMGWYRQAPGKERELVAAISRSGGSTSYADSVKGRFTISRDNAKNTVYLQMNSLKPEDTAVDYCAAQVQGTTRAKQRGGIGELDYWGQGTQVTVSS	low polyreactivity
QVQLVESGGGLVQAGGSLRLSCAASGSTFTGYTMGWYRQAPGKERELVASIRTYYADSVKGRFTISRDNAKNTVYLQMNSLKPEDTAVYYCAAKPGRYADYDYNSWGQGTQVTVSS	low polyreactivity
QVQLVESGGGLVQAGGSLRLSCAASGSTFTINAKGWYRQATGKETELVAAITDSAGNTYYADSVKGRFTISRDNAKNTVYLQMNSLKPEDTAVYYCAAAWPSTGLLYVLGYSGYGYWGQGTQVTVSS	low polyreactivity
QVQLVESGGGLVQAGGSLRLSCAASGSTFTINAMGWYRQAPGKERELVAAISRSGGSTFYADSVKGRFTISRDNAKNTVYLQMNSLKPEDTAVYYCAAGYRGTAYRYGYCGQGTQVTVSS	high polyreactivity
QVQLVESGGGLVQAGGSLRLSCAASGSTFTLYAKGWYRQAPGKERELVAAINGAGSTYYADSVKGRFTISRDNAKNTVYLQMNSLKPEDTAVYYCAKDLQYGWYDYWGQGTQVTVSS	low polyreactivity
QVQLVESGGGLVQAGGSLRLSCAASGSTFTLYVMGWYRQAPGKERELVAAISSNGGRTYYADSVKGRFTISRDNAKNTVYLQMNSLKPEDTAVYYCAAGKIGRYHYDYWGQGTQVTVSS	high polyreactivity
QVQLVESGGGLVQAGGSLRLSCAASGSTFTLYVMGWYRQATGKERELVAAISSNGGRTYYADSVKGRFTISRDNAKNTVYLQMTSLKPEDTAVYYCAKLVSLAGRIYGYWGQGTQVTVSS	high polyreactivity
QVQLVESGGGLVQAGGSLRLSCAASGSTFTNYAMGWYRQAPRKERELVAAITSVGSTYYADSVKGRFTISRDNAKNTVYLQMNSLKQEDTAVYYCNVVYRDQYNYWGQGTQVTVSS	low polyreactivity
QVQLVESGGGLVQAGGSLRLSCAASGSTFTPNAMGWYRQVPGKERELVASITIGGSTYADSVKGRFTISRDNAKNTVYLQMNSLKPEDTAVYYCNADWNWYPFLYSRMDYWGQGTQVTVSS	low polyreactivity

Sequence	polyreactivity (PSR sort gate)
QVQLVESGGGLVQAGGSLRLSCAASGSTFTPYAMGWSRKAPGKERELVAVIRWRGGRTYYADSVQGRFTISRDNAKNTVYLQMNSLKPEDTAVYYCAAGGSQGAGGYGYYGYDYWGQGTQETVSS	low polyreactivity
QVQLVESGGGLVQAGGSLRLSCAASGSTFTPYAMGWYRPAPGKEREFVAAITSIGGSTYYADSVKGRFTISRDHAKFTVYLQMNSLKPEDTAVYYCAADYYEWSLWNDYWGQGTQVTVSS	high polyreactivity
QVQLVESGGGLVQAGGSLRLSCAASGSTFTPYAMGWYRPAPGKERELVATISSRGGSTSYADSVKGRFTISRDNAKNTVYLQMNSLKPEDTAVYYCARKVRRVARIMYYWGQGTQVTVSS	high polyreactivity
QVQLVESGGGLVQAGGSLRLSCAASGSTFTPYAMGWYRQAPGKERELVAAINGGGTRTYYADSVKGRFTISRDNAKNTVYLQMNSLKPEDTAVYYCAARTSTSRSYPYNYWGQGTQVTVSS	high polyreactivity
QVQLVESGGGLVQAGGSLRLSCAASGSTFTPYGMGWYRKAPGKERELVAAITVSGGRTYDADSVKGRFTISRDNAKNTVYLQMNSLKPEDTAVYYCAAVYLRGDGEYDYWGQGTQVTVSS	low polyreactivity
QVQLVESGGGLVQAGGSLRLSCAASGSTFTRNAKGWYRQAPGKERELVAAITSSGSRTYYADSVKGRFTISRDNAKNTVYLQMNRLKPEDTAVYYCAGLGDTRYVAMDHWGQGTQVTVSS	high polyreactivity
QVQLVESGGGLVQAGGSLRLSCAASGSTFTRNAMGWYRQAPGKERELVAAISSRGTSTYYADSVKGRFTISRDNAKNTVYLQMNSLKPEDTAVYYCAAVGVKQYLGGNPFDYWGQGTQVTVSS	high polyreactivity
QVQLVESGGGLVQAGGSLRLSCAASGSTFTRYAMGWYRQAPGKERELVAAISLSGGDTYYADSVKGRFTISRDNAKNTVYLQMNSLKPEDTAVYYCAARWGYRGYSYEYWGQGTQVTVSS	high polyreactivity
QVQLVESGGGLVQAGGSLRLSCAASGSTFTRYAMGWYRQAPGKERELVAAISSSAGRTYYADSVKGRFTISRDYAKNTVYLQMKSLKPEDTAVYYCAATRVYAGAQYDYWGQGTKVTVSS	high polyreactivity
QVQLVESGGGLVQAGGSLRLSCAASGSTFTSYAIGWYRQAPGKERELVAAIRYSGGRTYYADSVKGRFTISRDNAKNTVYFQMNSLKPEDTAVYYCAARSKVYKVGYNYWGQGTQVTVSS	high polyreactivity
QVQLVESGGGLVQAGGSLRLSCAASGSTFTSYAMGWYRQAPGKERELVAAIRYRGDGTYYADSVKGRCTISRDNAKNTVNLQMNSLKPEDNAVYYCAADTTLQAFIRYRPIGSYDSWGQGTKVTVSS	low polyreactivity
QVQLVESGGGLVQAGGSLRLSCAASGSTFTSYAMGWYRQAPGKERELVAAIRYRGDGTYYADSVKGRFTISRDNAKNTVYLQMNSLKPEDTAVYYCAADSRVYRGGYIYRYGYWGQGTQVTVSS	low polyreactivity
QVQLVESGGGLVQAGGSLRLSCAASGSTFTSYAMGWYRQAPGKERELVAAISWRGGSTYYADSVKGRFTISRDNAKNTVYLQMNSLKPEDTAVYYCNAVVRQPHDLDYWGQGTQVTVSS	high polyreactivity
QVQLVESGGGLVQAGGSLRLSCAASGSTFTSYAMGWYRQAPGKERELVASITRSGGRTYYADSVKGRFTISRDNAKNTVYLQMNSLKPEDTAVYYCARRYPGGYYWGQGTQVTVSS	high polyreactivity
QVQLVESGGGLVQAGGSLRLSCAASGSTFTVNAMGWYRQAPGKERELVAVIRKSGTSTYYADSVKGRFTISRDNAKNTVYFQMNSLKPEDTAVYYCAGGGPSTLDDYWGQGTQVTVSS	low polyreactivity
QVQLVESGGGLVQAGGSLRLSCAASGSTFTVYAMGWYRQAPGKEREFVAAITRRGGNTYYADSVKGRFTISRDNAKNTVYLQMNSLKPEDTAVYYCNADSPLNAYYGGRELDYWGQGTQVTVSS	high polyreactivity
QVQLVESGGGLVQAGGSLRLSCAASGSTFTVYAMGWYRQAPGKERELVAVITGSGGSTYYADSVKGRFTISRDNAKNTVYLQMNSLKPEDTAVYYCAKEPGENWTVSWRDFDYWGQGTQVTVSS	low polyreactivity
QVQLVESGGGLVQAGGSLRLSCAASGSTFTVYAMRWYRQAPGKERELVADITGGGRTYYADSVKGRFTISRDNAKNTVYLQMNSLKPEDTAVYYCAKKYSWRYARVYSLHFDYWGQGTQVTVSS	high polyreactivity
QVQLVESGGGLVQAGGSLRLSCAASGSTFTWNAMGWYRQAPGKERELVAAISGDGGSTYYADSVKGRFTISRDNAKNTVYLQMNSLKPEDTAVYYCAASSAHIFSYRYNFWGQGTQVTVSS	low polyreactivity
QVQLVESGGGLVQAGGSLRLSCAASGSTFTWYAMGWYRQAPGKERELVADISYGGGSTYYADSVKGRFTISRDNAKNTVYLPMNSLKPEDTAVYYCAAESIPYYRYDYWGQGTQVTVSS	low polyreactivity
QVQLVESGGGLVQAGGSLRLSCAASGSTFTWYGKGWYRQAPGKERELVAAISGSGGRTYYADSVKGRFTISRDNAKNTVYLQMNSLKPEDTAVYYCNADPANPFGTEFEYWGQGTQVTVSS	high polyreactivity

Reference: the nanobody polyreactivity screen of Harvey et al. (2022)
